Measurements from US20240067734A1 (Hoffmann-La Roche, published 2024).
Like-named read-outs stand apart in the source and are kept apart here. One block for each binder: values may come before it.

How the values were obtained:
[1] = molecular target: T1, human NKG2D expressed on cells (human, UniProt P26718 1-216); assay: flow cytometry on NK92 cells, PE anti-human Fc secondary antibody
T1 construct: the cell type is named under assay; also called NKG2D on NK92 cells; HEK293T human NKG2D
T1 chain: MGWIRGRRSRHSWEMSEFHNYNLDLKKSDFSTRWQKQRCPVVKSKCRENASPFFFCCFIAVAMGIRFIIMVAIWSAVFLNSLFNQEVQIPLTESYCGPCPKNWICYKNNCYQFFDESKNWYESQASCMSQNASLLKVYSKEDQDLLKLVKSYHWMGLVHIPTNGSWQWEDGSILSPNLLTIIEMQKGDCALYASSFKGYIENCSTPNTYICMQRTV

[2] = molecular target: T1, human NKG2D expressed on cells; assay: flow cytometry; NK92 cells
his avi huNKG2D ECD = molecular target: T2, his avi huNKG2D ECD (human, biotinylated at the avi-tag (in the ELISA)); assay: SPR Biacore T200; antigen captured via anti-His, bispecific analyte
T2 construct: Human NKG2D ECD with N-terminal H6-avi tags, forms non-covalent dimers; also called recombinant human NKG2D
T2 chain: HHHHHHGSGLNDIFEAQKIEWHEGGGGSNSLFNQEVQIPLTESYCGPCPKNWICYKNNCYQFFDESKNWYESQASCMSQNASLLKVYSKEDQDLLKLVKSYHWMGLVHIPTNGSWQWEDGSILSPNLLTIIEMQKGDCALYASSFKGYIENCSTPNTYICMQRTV
Description: (§1) On a CM5 chip, an anti-penta-His capture antibody (Qiagen Penta-His Antibody, BSA-free; #34660) was immobilized by standard amine coupling on flow cells 2 and 3 at approximately 12′000 RU. […] Regeneration at the level of the anti-H6 tag capture antibody was achieved by 2 pulses of 10 mM glycine/HCl pH 2.0 for 60 s. Data were double-referenced against the unimmobilized flow cell 1 and a zero concentration of the analyte. The sensorgrams of the analytes were fitted to a simple 1:1 Langmuir interaction model.

hu N(A2B2)A-avi-His = molecular target: T3, hu N(A2B2)A-avi-His (human); assay: as above
T3 construct: Construct containing the A2 domain of human CEA, with avi and His tags; also called human CEA (A2 domain)
T3 chain: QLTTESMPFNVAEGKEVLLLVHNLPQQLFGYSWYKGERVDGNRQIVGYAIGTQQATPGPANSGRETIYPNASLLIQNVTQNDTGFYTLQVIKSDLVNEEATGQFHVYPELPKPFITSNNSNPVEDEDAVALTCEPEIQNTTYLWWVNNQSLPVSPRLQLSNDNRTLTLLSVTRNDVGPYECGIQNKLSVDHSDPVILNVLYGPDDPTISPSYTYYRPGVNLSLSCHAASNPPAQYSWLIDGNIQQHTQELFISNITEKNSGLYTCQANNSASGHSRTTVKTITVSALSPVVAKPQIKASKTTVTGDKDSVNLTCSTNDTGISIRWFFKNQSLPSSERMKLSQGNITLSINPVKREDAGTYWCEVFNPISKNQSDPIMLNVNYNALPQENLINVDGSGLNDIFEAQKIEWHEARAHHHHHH
Description: as §1

[3] = molecular target: T4, CEA expressed on LS180 tumor cells (human, UniProt P06731 35-685); assay: flow cytometry on CEA-positive LS180 cells, anti-human Fc secondary antibody
T4 construct: whole, on cells; also called carcinoembryonic antigen; CEACAM5
T4 sequence (looked up): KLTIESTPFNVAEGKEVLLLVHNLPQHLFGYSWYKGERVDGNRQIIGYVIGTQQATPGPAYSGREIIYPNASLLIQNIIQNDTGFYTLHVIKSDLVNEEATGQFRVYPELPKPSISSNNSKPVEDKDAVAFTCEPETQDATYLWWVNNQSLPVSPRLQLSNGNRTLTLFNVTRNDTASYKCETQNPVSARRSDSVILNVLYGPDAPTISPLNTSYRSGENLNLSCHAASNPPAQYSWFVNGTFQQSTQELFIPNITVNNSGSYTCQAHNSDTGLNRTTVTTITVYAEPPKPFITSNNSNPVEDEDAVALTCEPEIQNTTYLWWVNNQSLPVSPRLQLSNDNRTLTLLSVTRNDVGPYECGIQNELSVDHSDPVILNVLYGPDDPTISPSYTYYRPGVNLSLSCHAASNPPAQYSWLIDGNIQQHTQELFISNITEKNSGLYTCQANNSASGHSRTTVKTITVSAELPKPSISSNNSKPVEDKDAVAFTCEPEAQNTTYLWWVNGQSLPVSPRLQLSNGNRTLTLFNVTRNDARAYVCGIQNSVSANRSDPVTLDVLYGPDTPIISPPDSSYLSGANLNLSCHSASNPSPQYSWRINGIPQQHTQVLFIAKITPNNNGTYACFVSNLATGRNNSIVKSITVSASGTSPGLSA
Description: (§2) Viability of NK92 cells or tumor cells (MKN-45, LS180) was checked and cells were re-suspended and adjusted to a density of 1 mio cells/ml. 100 μl per well of this cell suspension (containing 0.1 mio cells) were seeded into a 96 well round bottom plate. The plate was centrifuged for 4 min at 400×g and the supernatant was removed. Then 40 μl of the diluted antibodies or FACS buffer were added to the cells and incubated for 30 min at 4° C. After the incubation the cells were washed twice with 150 μl FACS buffer per well. […] The cells were incubated for an additional 30 min at 4° C. To remove unbound antibody, the cells were washed again twice with 150 μl per well FACS buffer. To fix the cells, 100 μl of FACS buffer containing 1% PFA were added to the wells. Before measuring, the cells were re-suspended in 150 μl FACS buffer. The fluorescence was measured using a BD flow cytometer.

[4] = molecular target: T4, CEA expressed on LS180 tumor cells; assay: as above; remark: listed apart in the source
Description: as §2

[5] = molecular target: T1, human NKG2D expressed on cells; assay: flow cytometry on NK cells (CD3- CD56+) within freshly isolated human PBMCs, anti-human Fc secondary antibody
Description: (§3) Viability of freshly isolated peripheral blood mononuclear cells (PBMCs) was checked and cells were adjusted to a density of 1 mio cells/ml in FACS buffer. 100 μl per well of the PBMCs (containing 0.1 mio cells) were seeded into a 96 well round bottom plate. The plate was centrifuged for 4 min at 400×g and the supernatant was removed. Then 0.5 μl FC BLOCK™ (BD Bioscience) in 20 μl total volume per well were added and the plate was incubated for 30 min at 4° C. Supernatant was removed and then 40 μl of the diluted anti-NKG2D antibodies were added to the cells and incubated for additional 30 min at 4° C. After the incubation, the cells were washed twice with 150 μl FACS buffer per well. […] The cells were incubated for an additional 30 min at 4° C. To remove unbound antibody, the cells were washed again twice with 150 μl per well FACS buffer. To fix the cells, 100 μl of FACS buffer containing 1% PFA were added to the wells. Before measuring the cells were re-suspended in 150 μl FACS buffer. The fluorescence was measured using a BD flow cytometer.

[6] = molecular target: T1, human NKG2D expressed on cells; assay: flow cytometry on CD8 T cells (CD3+ CD8+) within freshly isolated human PBMCs, anti-human Fc secondary antibody
Description: as §3

[7] = molecular target: T1, human NKG2D expressed on cells; assay: flow cytometry on NKG2D-positive NK92 cells, anti-human Fc secondary antibody
Description: as §2

- EC50 (read off the curve) [3]: ~10 nM
B3: NKG2D×CEA bispecific antibody, anti-NKG2D 320 / anti-CEA B9, L format (bispecific antibody, V domains shown)
VH 1: EVQLLESGGGLVQPGGSLRLSCATSGFTFSDYAMSWVRQAPGKGLEWVSYNSFSVGSTDYADSVKGRFTISRDNSKNTLYLQMNSLRAEDTAVYYCSKHSGNYYTGPFHYWGQGTLVTVSS
VL 1: DIQLTQSPSFLSASVGDRVTITCRASQGISSYLAWYQQKPGKAPKLLIYAASSLESGVPSRFSGSGSGTDFTLTISSLQPEDFATYYCQQSYSTPITFGQGTRLEIK
VH 2: VQLVESGGGLVQPGRSLRLSCAASGFTVSSYWMHWVRQAPGKGLEWVGFIRNKANGGTTEYAASVKGRFTISRDDSKNTLYLQMNSLRAEDTAVYYCARDRGLRFYFDYWGQGTTVTVSS
VL 2: QAVLTQPASLSASPGASASLTCTLRRGINVGAYSIYWYQQKPGSPPQYLLRYKSDSDKQQGSGVSSRFSASKDASANAGILLISGLQSEDEADYYCMIWHSGASAVFGGGTKLTVL
notes: also called format L (320)

- EC50 (read off the curve) [3]: ~2 nM
- EC50 (read off the curve) [4]: ~2 nM
B4: anti-CEA antibody B9 (IgG) (antibody, V domains shown)
VH: VQLVESGGGLVQPGRSLRLSCAASGFTVSSYWMHWVRQAPGKGLEWVGFIRNKANGGTTEYAASVKGRFTISRDDSKNTLYLQMNSLRAEDTAVYYCARDRGLRFYFDYWGQGTTVTVSS
VL: QAVLTQPASLSASPGASASLTCTLRRGINVGAYSIYWYQQKPGSPPQYLLRYKSDSDKQQGSGVSSRFSASKDASANAGILLISGLQSEDEADYYCMIWHSGASAVFGGGTKLTVL
notes: IgG

Further lines, the binder ahead of its results:

B1: bispecific NKG2D×CEA antibody in M format, ADI27743 / huA5B7 (bispecific antibody, human IgG1, kappa, L234A L235A)
heavy 1: not shown
light 1: QVQLQQWGAGLLKPSETLSLTCAVYGGSFSGYYWSWIRQPPGKGLEWIGEIDHSGSTNYNPSLKSRVTISVDTSKNQFSLKLSSVTAADTAVYYCARARGPWSFDPWGQGTLVTVSSASVAAPSVFIFPPSDEQLKSGTASVVCLLNNFYPREAKVQWKVDNALQSGNSQESVTEQDSKDSTYSLSSTLTLSKADYEKHKVYACEVTHQGLSSPVTKSFNRGEC
heavy 2: not shown
light 2: EIVLTQSPATLSLSPGERATLSCRASSSVTYIHWYQQKPGQAPRSWIYATSNLASGIPARFSGSGSGTDFTLTISSLEPEDFAVYYCQHWSSKPPTFGQGTKLEIKRTVAAPSVFIFPPSDRKLKSGTASVVCLLNNFYPREAKVQWKVDNALQSGNSQESVTEQDSKDSTYSLSSTLTLSKADYEKHKVYACEVTHQGLSSPVTKSFNRGEC
notes: also called ADI27743 bispecific
- binding result [1]: binds

B2: NKG2D×CEA bispecific antibody in M format, P1AE4980 / huA5B7 (bispecific antibody, human IgG1, kappa, L234A L235A)
heavy 1: not shown
heavy 2: EVQLLESGGGLVQPGGSLRLSCAASGFTFTDYYMNWVRQAPGKGLEWLGFIGNKANAYTTEYSASVKGRFTISRDKSKNTLYLQMNSLRAEDTATYYCTRDRGLRFYFDYWGQGTTVTVSSASTKGPSVFPLAPSSKSTSGGTAALGCLVEDYFPEPVTVSWNSGALTSGVHTFPAVLQSSGLYSLSSVVTVPSSSLGTQTYICNVNHKPSNTKVDEKVEPKSCDKTHTCPPCPAPEAAGGPSVFLFPPKPKDTLMISRTPEVTCVVVDVSHEDPEVKFNWYVDGVEVHNAKTKPREEQYNSTYRVVSVLTVLHQDWLNGKEYKCKVSNKALGAPIEKTISKAKGQPREPQVCTLPPSRDELTKNQVSLSCAVKGFYPSDIAVEWESNGQPENNYKTTPPVLDSDGSFFLVSKLTVDKSRWQQGNVFSCSVMHEALHNHYTQKSLSLSP
light 1: QEQLVQSGAEVKKPGESLKISCKGSGFDFNTFWMTWVRQMPGKGLEWMGSIHGGSGSRDYSPSFQGQVTISADIDQSTAYLQWSSLKASDTAMYYCARPGYRSWSKTFDLWGQGTTVTVSSASVAAPSVFIFPPSDEQLKSGTASVVCLLNNFYPREAKVQWKVDNALQSGNSQESVTEQDSKDSTYSLSSTLTLSKADYEKHKVYACEVTHQGLSSPVTKSFNRGEC
light 2: EIVLTQSPATLSLSPGERATLSCRASSSVTYIHWYQQKPGQAPRSWIYATSNLASGIPARFSGSGSGTDFTLTISSLEPEDFAVYYCQHWSSKPPTFGQGTKLEIKRTVAAPSVFIFPPSDRKLKSGTASVVCLLNNFYPREAKVQWKVDNALQSGNSQESVTEQDSKDSTYSLSSTLTLSKADYEKHKVYACEVTHQGLSSPVTKSFNRGEC
notes: also called NKG2D×CEA bispecific antibody (humanized anti-NKG2D antibody variant P1AE4980, M format)
- EC50 [2]: 7.38 nM
- Kd (his avi huNKG2D ECD): 12.6 nM
- Kd (hu N(A2B2)A-avi-His): 3.45 nM
- EC50 (read off the curve) [1]: ~3 nM

B5: NKG2D×CEA bispecific antibody, anti-NKG2D 395 (C50S) / anti-CEA B9, M format (bispecific antibody, V domains shown)
VH 1: QEQLEQSGGGLVTPGGSLKLCCTASGFDFNTFWMTWVRQAPGKGLEWIGSIHGGSGSRDYASWVNGRFTLSRDIDQSTACLQVNSLTAADTAMYYCARPGYRSWSKTFDLWGQGTMVTVSS
VL 1: DIQMTQSPSSLSASVGDRVTITCRASQDISGALNWYQQKPGKAPNLLIYAASSLQSGVPSRFSGSGSGTDYTLTISSLQPEDFATYYCQQANSFPLTFGGGTKVEIK
VH 2: VQLVESGGGLVQPGRSLRLSCAASGFTVSSYWMHWVRQAPGKGLEWVGFIRNKANGGTTEYAASVKGRFTISRDDSKNTLYLQMNSLRAEDTAVYYCARDRGLRFYFDYWGQGTTVTVSS
VL 2: QAVLTQPASLSASPGASASLTCTLRRGINVGAYSIYWYQQKPGSPPQYLLRYKSDSDKQQGSGVSSRFSASKDASANAGILLISGLQSEDEADYYCMIWHSGASAVFGGGTKLTVL
notes: also called monovalent format M
- EC50 (read off the curve) [5]: ~5 nM
- EC50 (read off the curve) [6]: ~5 nM
- EC50 (read off the curve) [7]: ~4 nM
- EC50 (read off the curve) [4]: ~10 nM
